The nature of series [1]: folding stability dG unfold from trypsin proteolysis; higher = more stable. In a few lines: (§1)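 Bayesian fitting of sequencing counts gave K50 for each design. Unfolding free energy followed by setting this against a sequence-predicted unfolded-state K50 and a shared folded-state K50, either per protease or with trypsin and chymotrypsin combined. The designs, under 80 residues and lacking cysteine, were digested in a PA-tagged cDNA display format at 11 threefold-diluted protease concentrations and without protease, and only those with AlphaFold2 dimer inter-PAE above 15 were kept.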

A short description of series [2]: folding stability dG unfold from chymotrypsin proteolysis; higher = more stable. The essentials:
as §1

A short description of series [3]: folding stability dG unfold (combined trypsin and chymotrypsin); higher = more stable. The essentials: as §1

± gives the half width of the 95% confidence interval.

Regarding “SSSGTDPLTVRVTVTLTDPSTGKETLLEYEVEVPPGTPVEVELPDVPPSASVTVEVYDPGGVRIGTRTLPSA [r9_478_JUSTAS]”, the “folding stability dG unfold” value in series [1] worked out at 1.81 ± 0.14 kcal/mol; in series [2] it was 1.78 ± 0.11 kcal/mol; in series [3] it was 1.95 ± 0.4 kcal/mol.

On to “SSSPSGLSVTSSTVTKVETDPGPGNVTTVTVTTLNNSVLIIPLPGKPLVIPTNTTVETTYTVPPDDPSPASA [r9_531_JUSTAS]”, for which the “folding stability dG unfold” value is 1.31 ± 0.073 kcal/mol in series [1], 0.87 ± 0.11 kcal/mol in series [2] and 1.15 ± 0.074 kcal/mol in series [3].

Regarding “SSSSMKTVFDPNRPYPRTVLVTFLPDGTVVITAPGKKLSTVKVEIEPPPPLELRPRVSPNGERSPGYLRLGS [r1_496_JUSTAS]”, the “folding stability dG unfold” value in series [1] worked out at 1.1 ± 0.18 kcal/mol; in series [2] it was 1.76 ± 0.14 kcal/mol; in series [3] it was 1.47 ± 0.16 kcal/mol.

Take “SSSSTLVSSYTLTLKDEKGNEITLKVDVYKFPSGSYRVEITRPDGTVTEYEFPASEPPTEEKIKELALKKSA [r9_616_JUSTAS]”: the “folding stability dG unfold” value in series [1] was 4.47 ± 0.46 kcal/mol; in series [2], 6.01 ± 0.13 kcal/mol; in series [3], greater than 6 kcal/mol.

For the sequence “SSWEKLSTLTLPSTGLTVTFYYDPSTNSTAVKVTDGAGPELSEKVLSDDETFTLPDGVSIKLPKGAEPASSA [r9_340_JUSTAS]”, the “folding stability dG unfold” value in series [1] turned out to be 0.334 ± 0.021 kcal/mol; in series [2], 1.45 ± 0.077 kcal/mol; in series [3], 1.02 ± 0.081 kcal/mol.

Regarding “SSYTVDVTFTDPSPPKPTHRTLSSIEDAIAEAKAELPPGSVATITVTYPDGSTETITIVGDGVVETKKTASA [r9_482_JUSTAS]”, the “folding stability dG unfold” value in series [1] was -0.116 ± 0.056 kcal/mol; in series [2], 0.917 ± 0.039 kcal/mol; in series [3] it was 0.561 ± 0.081 kcal/mol.

Turning to “STIRITLPKEELSPELLEALAKAPGLSEEELRDRLTVEEVDGEVVITLSPEVLEELRKRNPELLEALEKASA [r9_160_TrROS_Hall]”, the “folding stability dG unfold” value in series [1] amounted to 3.32 ± 0.093 kcal/mol; in series [2] it was 1.91 ± 0.054 kcal/mol; in series [3], 2.59 ± 0.11 kcal/mol.

As for “STITIEVETPEELEKALVEAEKLVEKGKDVKIEIFVRNENGETLKLTFDIKQLPDGIPVLEIEVEPVPPPSA [r9_1023_TrMRF]”, the “folding stability dG unfold” value in series [1] worked out at 1.89 ± 0.1 kcal/mol; in series [2], 3.1 ± 0.041 kcal/mol; in series [3], 2.74 ± 0.13 kcal/mol.

For “STKLLPFEEALKEAEKAIKEGKKKVNITIYTPDGKTFNLTDVEKVKEFIEKEFPGISLSELTVTVSITPPES [r1_325_JUSTAS]”, the “folding stability dG unfold” value was determined as 2.86 ± 0.068 kcal/mol in series [1], 3.53 ± 0.065 kcal/mol in series [2] and 3.3 ± 0.067 kcal/mol in series [3].

With “STLEELLEAIEKLPPGAVVRITITLENGEKIELPIEMTVEELKEQLEALAAEHPGKKIEIKIEVIPKEELSA [r9_37_TrROS_Hall]”, the entries for the “folding stability dG unfold” value in series [1], in series [2] and in series [3] were 3.66 ± 0.38 kcal/mol, 2.78 ± 0.28 kcal/mol and 3.43 ± 0.56 kcal/mol, respectively.

Turning to “STLEQILDAIESMPPGWVFRIKIHHPNGEPHEHRFNMTYDDIKAQLENMIDHHPGQPIKIKIEFMPPEDFSA [r9_37_TrROS]”, the “folding stability dG unfold” value in series [1] came to 2.97 ± 0.11 kcal/mol; in series [2] it was 3.72 ± 0.077 kcal/mol; in series [3] it was 3.38 ± 0.064 kcal/mol.

For “STLLEEAKAQAEAYLKAAGLELAPGDVVTLTVPYPGPLTLEITVHPGEKKLEITATDASTPTTHTLTFDESA [r9_426_JUSTAS]”, the “folding stability dG unfold” value was 0.831 ± 0.039 kcal/mol in series [1], 1.16 ± 0.074 kcal/mol in series [2] and 1.03 ± 0.079 kcal/mol in series [3].

Regarding “STLPPGATRTFEFTDPATGKKITVTLTRLPDGTVRVTLTTTDPATGKTTTETFTLPGETLEALLALVEESSA [r9_618_JUSTAS]”, the “folding stability dG unfold” value was found to be 4.28 ± 0.22 kcal/mol in series [1], 4.86 ± 0.12 kcal/mol in series [2] and 4.68 ± 0.16 kcal/mol in series [3].

On to “STTEVEVTPLPGNSTLVTTTTTTPEFDPANGTIRYTSETTTTTITYTPGTTEPTTTTTTTTTTTTIPATTSA [r9_140_JUSTAS]”, for which the “folding stability dG unfold” value in series [1] amounted to 0.639 ± 0.062 kcal/mol; in series [2] it was 0.813 ± 0.12 kcal/mol; in series [3], 0.814 ± 0.14 kcal/mol.

On to “SVEKAREALEEAGFEVTRIEVREDGTVRVTVRRDGKLVEIELTVEPPPPVEVVEEEPEVRVERRYSAEDLSA [r9_2_TrROS_Hall]”, for which the “folding stability dG unfold” value in series [1] was 0.499 ± 0.15 kcal/mol; in series [2] it was -0.34 ± 0.42 kcal/mol; in series [3] it was 0.212 ± 0.35 kcal/mol.

With “SVEKARERLEKLGFKLVSVDPLEDGSVVLTFEFPDNKVVVLVDEDGNARIVAYNPSDGKFSEATFNLDDLSA [r9_2_TrMRF]”, the “folding stability dG unfold” value in series [1] was determined as 2.84 ± 0.066 kcal/mol; in series [2], 2.577 ± 0.024 kcal/mol; in series [3], 2.7 ± 0.038 kcal/mol.

Consider “SVFEMPIKLTLKRRDPDGKGRKVKVTIRIRFEMPPNLPPDDKNDPERRKMHQMMHSNMHERAESLADPLASA [r9_237_TrROS]”, for which the “folding stability dG unfold” value stood at 1.41 ± 0.095 kcal/mol in series [1], 1.6 ± 0.36 kcal/mol in series [2] and 1.67 ± 0.28 kcal/mol in series [3].

With “SVKIKINWQRDPEDGRLYLMIEYRFEDDPQQAIEEIKDILERFGFKVPEIESITVDPGNGEITIPIRIPWSA [r9_876_TrROS]”, the “folding stability dG unfold” value in series [1] came out at 2.64 ± 0.097 kcal/mol; in series [2], 2.62 ± 0.11 kcal/mol; in series [3] it was 2.66 ± 0.22 kcal/mol.

As for “SVTVDEIAEWFANSFQQHGMKDVKVDVTVEPDPKNGRVRVDVQIRMTYPNPDGEKHRFEMTIPVEIPPNDSA [r9_440_TrROS]”, the “folding stability dG unfold” value in series [1] came to 1.93 ± 0.051 kcal/mol; in series [2], 1.93 ± 0.075 kcal/mol; in series [3], 1.99 ± 0.12 kcal/mol.

Take “SVVLDVPYENRPDLLATIRALVAEKAPPVVVFVEAPEAERARLRRELEALGFTVEPTPVPNRYRITFRPASA [r9_600_TrMRF]”: the results for the “folding stability dG unfold” value in series [1], in series [2] and in series [3] were 3.15 ± 0.085 kcal/mol, 3.07 ± 0.058 kcal/mol and 3.15 ± 0.067 kcal/mol, respectively.

In the case of “SVYIPIPMGDPEGLKEMLDFIKNILEKNQENGYENVPIPIHMPNGGPFEFPIDPNSTLEEQLDQIEKFIESA [r9_127_TrROS]”, the figures for the “folding stability dG unfold” value in series [1], in series [2] and in series [3] were 1.56 ± 0.11 kcal/mol, 0.663 ± 0.078 kcal/mol and 1.15 ± 0.24 kcal/mol, respectively.

As for “SYIKIPFNVWMPPDNAEAMAEEFANNLAQKHGWKIKGIKPVEPVPSPDGEWYPFRVSITIRMPDPEAINASA [r9_302_TrROS]”, the “folding stability dG unfold” value in series [1] amounted to 1.62 ± 0.031 kcal/mol; in series [2] it was 2.07 ± 0.13 kcal/mol; in series [3], 1.82 ± 0.098 kcal/mol.

With “SYKIHIMRPNGEMEEIPIKHPDGWKINIHRGPNKPFYIMVERYDPDGGPKPKPVIPIDSPEQALDKLKDASA [r9_942_TrROS]”, the “folding stability dG unfold” value was -0.123 ± 0.18 kcal/mol in series [1], -0.11 ± 0.3 kcal/mol in series [2] and 0.0153 ± 0.2 kcal/mol in series [3].

For the sequence “TIVIENASVEQIKNAIKEAIKEGKEVKIIIKASPEEKEKIIEELKKLPEIKKVEKLPNGSIKITIKAKELKS [r1_324_TrROS_Hall]”, the figures for the “folding stability dG unfold” value in series [1], in series [2] and in series [3] were 1.76 ± 0.083 kcal/mol, 2.82 ± 0.69 kcal/mol and 2.32 ± 0.66 kcal/mol, respectively.

As for “VDLGIRTESVGGRRYRVLIRRPGTGEPRVLEVEGTLEEARERALREIREEYPDLPVRSINPVPVPAPPWLES [r1_80_TrMRF]”, the “folding stability dG unfold” value in series [1] was -0.153 ± 0.19 kcal/mol; in series [2], -0.154 ± 0.14 kcal/mol; in series [3], -0.139 ± 0.15 kcal/mol.

As for “VDPDDPEYQRFVYFVQELAKTIVEEHQEEGPTVDELYITVDPNNVKIEPVDMPPDEWEEHQKEGRPVIPIRS [r1_134_TrROS]”, the “folding stability dG unfold” value was 0.179 ± 0.14 kcal/mol in series [1], 0.187 ± 0.33 kcal/mol in series [2] and -0.0608 ± 0.28 kcal/mol in series [3].

Regarding “WLKFPFPIYNPGFGRPAKFEIELWPDGQLQVTWNGQPILSIPIRIVPPPEVEVDPEYDPNGKEKPKWKYPGS [r1_496_TrROS]”, the “folding stability dG unfold” value in series [1] was determined as 0.438 ± 0.22 kcal/mol; in series [2], 1.81 ± 0.16 kcal/mol; in series [3], 1.39 ± 0.35 kcal/mol.

The record behind these values is the supplement of paper PMC12764529.
